Residue numbers refer to the chain shown, from its start. Names may count otherwise.
B1: Bacteriophage T4 gene 32 protein, full-length protein (1-301) (natural protein, UniProt P03695 1-301, looked up)
chain: MFKRKSTAELAAQMAKLNGNKGFSSEDKGEWKLKLDNAGNGQAVIRFLPSKNDEQAPFAILVNHGFKKNGKWYIETCSSTHGDYDSCPVCQYISKNDLYNTDNKEYSLVKRKTSYWANILVVKDPAAPENEGKVFKYRFGKKIWDKINAMIAVDVEMGETPVDVTCPWEGANFVLKVKQVSGFSNYDESKFLNQSAIPNIDDESFQKELFEQMVDLSEMTSKDKFKSFEELNTKFGQVMGTAVMGGAAATAAKKADKVADDLDAFNVDDFNTKTEDDFMSSSSGSSSSADDTDLDDLLNDL
notes: also called gp32; wild-type gp32; source: expression plasmid pYS6, induced, overexpressed and purified as previously described
B2: gp32 variant D215A, E218A, D223A (natural protein, bacteriophage T4, UniProt P03695 1-301, looked up)
chain: B1 chain with D215A, E218A, D223A
notes: gene 32 protein of bacteriophage T4 with three negative charges removed within and adjacent to the B helix (216-220); source: pYS6 variant, induced, overexpressed and purified as previously described
B3: gp32 variant E229A, E230A (natural protein, bacteriophage T4, UniProt P03695 1-301, looked up)
chain: B1 chain with E229A, E230A
notes: gene 32 protein of bacteriophage T4 with two negative charges removed within the C helix (228-237); source: pYS6 variant, induced, overexpressed and purified as previously described

Target: the molecule itself
Experiment: other fluorescence titration; aliquots of protein added to poly(εA), enhancement of ethenoadenylate fluorescence; 0.45 M NaCl, 0.02 M HEPES pH 7.68, 1x10^-4 M EDTA/Na+, 20°C; McGhee-von Hippel cooperative model, n = 8; ω is the cooperativity between adjacent proteins bound on the polynucleotide

Row | Protein | cooperativity parameter ω (on poly(εA))
1 | B1 | 2000
2 | B2 | 120
3 | B3 | 1000
